The text below walks through data of patent US20040229826A1, “Dose-dense & sequential adjuvant cancer chemotherapy” (priority 2002, published 2004).

Experimental: Designed for outpatients, all chemotherapy (FIG. 1) was given intravenously, starting within 84 days from primary surgery. […]
Disease-free survival (DFS), which was the primary study endpoint, was measured from study entry until local recurrence, distant relapse or death without relapse, whichever occurred first. […] The secondary endpoint of overall survival (OS) was measured from study entry until death from any cause; surviving patients were censored at the date of last contact. […]

B1: filgrastim (protein, chains of the INN, looked up)
chain: MTPLGPASSLPQSFLLKCLEQVRKIQGDGAALQEKLCATYKLCHPEELVLLGHSLGIPWAPLSSCPSQALQLAGCLSQLHSGLFLYQGLLQALEGISPELGPTLDTLQLDVADFATTIWQQMEELGMAPALQPTQGAMPAFASAFQRRAGGVLVASHLQSFLEVSYRVLRHLAQP
Take B1: the incidence of leukemia entry (influence of filgrastim) is “not influenced”. Also, the granulocyte toxicity result (use of filgrastim in the dose dense regimens) was “statistically significant decrease”.
